Data as given in US20020119139A1, “Cloning and recombinant expression of mammalian group XII secreted phospholipase A2” (priority 2000, published 2002).

B1: hGIIA: human group IIA secreted phospholipase A2, used as literature comparator (protein, UniProt P14555 21-144, looked up)
Phospholipase A2, membrane …: NLVNFHRMIKLTTGKEAALSYGFYGCHCGVGGRGSPKDATDRCCVTHDCCYKRLEKRGCGTKFLSYKFSNSGSRITCAKQDSCRSQLCECDKAAATCFARNKTTYNKKYQYYSNKHCRGSTPRC
B2: hGXII: novel human secreted phospholipase A2 of group XII, mature protein of 167 amino acids (SEQ ID No 2), produced in E. coli (protein)
chain: MALLSRPALTLLLLLMAAVVRCQEQAQTTDWRATLKTIRNGVHKIDTYLNAALDLLGGEDGLCQYKCSDGSKPFPRYGYKPSPPNGCGSPLFGVHLNIGIPSLTKCCNQHDRCYETCGKSKNDCDEEFQYCLSKICRDVQKTLGLTQHVQACETTVELLFDSVIHLGCKPYLDSQRAACRCHYEEKTDL

Assays:
[1] = from reference (18); cited from earlier work
[2] = Ca2+ dependency of the initial velocity of hydrolysis of POPC vesicles; assay type: biochemical; conditions: POPC vesicles with 1-palmitoyl-2-[8,9-3H]palmitoyl-sn-glycero-3-phosphocholine
Protocol: (§1) FIG. 3 represents the enzymatic properties of hGXII. […] Additional assay details have been reported elsewhere (18).
(§2) Large unilamellar vesicles (0.1 μm) of POPC, POPG, and POPS (31) were used to measure the initial rates of hydrolysis by hGXII in Hank's balanced salt solution with 1.2 mM CaCl2 and 0.9 mM MgCl2 using the fatty acid binding protein assay (17). The pH-rate profile and Ca^2+ dependency for the action of hGXII on POPG and POPC vesicles, respectively, were obtained as described (17).

[3] = pH-rate profile of hydrolysis of POPG vesicles; assay type: biochemical
Protocol: as §1, §2

[4] = Initial rates of hydrolysis of large unilamellar vesicles, fatty acid binding protein assay; assay type: biochemical
Protocol: as §1, §2

[5] = sPLA2 activity assay using radiolabeled E. coli membranes; assay type: biochemical; conditions: recombinant protein from E. coli; also active on POPG, POPS and POPC vesicles
Excerpt: (§3) A mammalian expression vector containing the full-length hGXII cDNA was first used to transiently transfected HEK293 cells. […] Mass spectrometry analysis gave an experimental mass of 18,702.6±0.5 Da, which agrees well with the mass of 18,702.1 Da calculated from the sequence of mature hGXII shown in FIG. 1A.
The decrease as the pH is lowered presumably reflects, in part, the protonation of the active site histidine. As for all mammalian sPLA2s examined so far, the enzymatic activity of hGXII on phosphatidylglycerol vesicles is highest (FIG. 3C), which probably reflects the tighter binding of hGXII to anionic vesicles (37). Although hGXII hydrolyzes POPC at only ˜7% of the rate of POPG, this difference is small compared to the greater than 10^5-fold preference of hGIIA for POPG versus POPC (18).

[6] = sPLA2 activity secreted into culture medium of transiently transfected HEK293 cells; assay type: cell-based; conditions: 1-5 days after transfection
Excerpt: as §3

Molecule	preference for POPG versus POPC [1]	Kca (Ca2+ dependence of sPLA2 activity toward POPC vesicles) [2] [µM]	pH of maximal activity [3]	POPS as substrate ([4]; POPS vesicles)	specific enzymatic activity compared to other mammalian sPLA2s ([4]; compared to hGIB, hGIIA, hGV, hGX, comparable to mGIIE)	enzymatic activity on phosphatidylglycerol vesicles ([4]; compared with POPC and POPS vesicles)	rate of POPC hydrolysis as % of the rate of POPG ([4]; large unilamellar vesicles (0.1 μm), Hank's balanced salt solution, 1.2 mM CaCl2, 0.9 mM MgCl2) [%]	sPLA2 catalytic activity [5]	sPLA2 activity secreted into the culture medium versus cells transfected with vector lacking the insert [6]
B1	greater than 10^5 fold	–	–	–	–	–	–	–	–
B2	–	30 ± 10	~8.0	good substrate	low	highest	~7	catalytically active	barely above
